Experiment: yeast display, Sf9 membrane polyspecificity reagent, FACS + sequencing; frameworks hold sequencing errors
In short: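 A synthetic nanobody library was expressed on Saccharomyces cerevisiae BJ5465 by galactose induction for 36–48 hours. The library was stained for 1 hour at 4 °C with 10% biotinylated, detergent-solubilized Sf9 membrane reagent and enriched with streptavidin microbeads before FACS. Low and high (top ~1%) gates were set on anti-HA fluorescence for expression and streptavidin fluorescence for reagent binding, and each polyreactivity label reflects the gate of origin.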

QVQLVESGGGLVQAGGSLRLSCAASGFIFRKYAMGWYRQAPGKERELVAAITNGGSTYADSVKGRFTISRDNAKNTVYLQMNSLKPEDTAVYYCNARYRPRQRPEGGYWGQGTQVTVSS
polyreactivity (PSR sort gate): high polyreactivity

QVQLVESGGGLVQAGGSLRLSCAASGFIFRNYVMGWYRQAPGKERELVAAINWSTGTTNYADSVKGGFTISRDNAKNTVYLQMNSLKPEDTAVYYCNARYRLRYIYSLRYDYWGQGTQVTVSS
polyreactivity (PSR sort gate): high polyreactivity

QVQLVESGGGLVQAGGSLRLSCAASGFIFRPYAMGWYRQAPGKERELVAAITGGGSTYYADSVKGRFTISRDNAKNTVYLQMNSLKPEDTAVYYCAKDKGRAYFGPSPYDYWGQGTQVTVSS
polyreactivity (PSR sort gate): low polyreactivity

QVQLVESGGGLVQAGGSLRLSCAASGFIFRPYAMGWYRQAPGKERELVAALTGGGSTYYADSVKGRFTISRDNAKNTVYLQMNSLKPEDTAVYYCNADRRRRSGGFAAWHFQRNDYWGQGTQVSVSS
polyreactivity (PSR sort gate): low polyreactivity

QVQLVESGGGLVQAGGSLRLSCAASGFIFRRNAMGRYRQAPGKERELVAAITSRGGSTYYADSVKGRFTISRDNAKHTVYLQMNSLKPEDTAVYYCAAKFPSRFYSFVQYYYWGQVTQVTVSS
polyreactivity (PSR sort gate): high polyreactivity

QVQLVESGGGLVQAGGSLRLSCAASGFIFRRNAMGWYRQAPGKERELVAAIRQRGDSTYYADSVKGRFTISRDNAKITVYLQMNSLKPEDTAVYYCNAVAKLYYWRYDYWGQGTQVTVSS
polyreactivity (PSR sort gate): low polyreactivity

QVQLVESGGGLVQAGGSLRLSCAASGFIFRRYAMGWYRPAPGKEREFVAAISWSGATTYYADSVKGRFTISRDNAKITVYLQMNSLKPEDTAVYYCAKDVRRSPSTWDNYWGQGTQVTVSS
polyreactivity (PSR sort gate): high polyreactivity

QVQLVESGGGLVQAGGSLRLSCAASGFIFRRYAMGWYRQAPGKERELVAAISRTGSTNYADSVKGRFTISRDNAKNTVYLKMNSLKPDDTAVYYCNARYITFNGYGYGYWGQGTQVTVSS
polyreactivity (PSR sort gate): high polyreactivity

QVQLVESGGGLVQAGGSLRLSCAASGFIFRRYARGWYRQAPGKERELVASISWRGGSTYYADSVKGRFTISRDNAKNTVYLQMNSLKPEDTAVYYCAARIGATYWVDWTHRAYDYWGQGTQVTVSS
polyreactivity (PSR sort gate): high polyreactivity

QVQLVESGGGLVQAGGSLRLSCAASGFIFRRYVMGWYRQAPGKERELVAAISYGGGSTYYADSVKGRFTISRDNAKITVYLQMNSLKPEDTAVYYCAKLYYRHLYEYDYWGQGTQVTVSS
polyreactivity (PSR sort gate): high polyreactivity

QVQLVESGGGLVQAGGSLRLSCAASGFIFRSNAMGWYRQAPGKERELVAAITRGDSTNYADSVKGRFTITRDNAKNTDYLQKNSLKPEDTAVYYCAAGRSYHSGVHHYRKRNYWGQGTQVTVSS
polyreactivity (PSR sort gate): high polyreactivity

QVQLVESGGGLVQAGGSLRLSCAASGFIFRSNTMGWYRQAPGKERELVAAITWSGGNTYYADSVKGRFTISRDNAKNTVYLQMNSLKPEDTAVYYCATVTRLYRHGYWGQGTQVTVSS
polyreactivity (PSR sort gate): high polyreactivity

QVQLVESGGGLVQAGGSLRLSCAASGFIFRSYVMGWYRQAPGKEMEFVAVITSSGGRTYYADSVKGRFTISRDNAKNTVYLQMNSLKPEDTAVYYCAATRRYPPRRVWYDYWGQGTQVTVSS
polyreactivity (PSR sort gate): high polyreactivity

QVQLVESGGGLVQAGGSLRLSCAASGFIFRTYAMGWYRQAPGKERELVATITGDGSTNYADSVKGRFTISRDHAKNTVYLQMNSLKPEDTAVYYGSRDDRLAGDYWGQGSQVTVSS
polyreactivity (PSR sort gate): low polyreactivity

QVQLVESGGGLVQAGGSLRLSCAASGFIFRVNAMGWYRQATGKERELVAAISASGGTTYYADSVKGRFTISRDIAKNTVYLQMNSLKPEDTAVYYCNAPSRTRYDYWGQGTQVTVSS
polyreactivity (PSR sort gate): low polyreactivity

QVQLVESGGGLVQAGGSLRLSCAASGFIFRVYAMGWYRQAPGKERELVAAISSSGSSTFYADSVKGRFTISRDNAKNTVYLQMNSLKPEDTAVYYCNAYVRRIVRSYYWGQGTQVTVSS
polyreactivity (PSR sort gate): high polyreactivity

QVQLVESGGGLVQAGGSLRLSCAASGFIFRWNTMGWYRQAPGKERELVAAISSRGGSTYYADSVKGRFKISRDNAKNTVYLQMNSLKPEDTAVYYCNAVRGDEYWGQGTQVTVSS
polyreactivity (PSR sort gate): high polyreactivity

QVQLVESGGGLVQAGGSLRLSCAASGFIFRWYAMGWYRQAPGKERELVAAISSGATTNYADSVKGRFTISRDNAKNTVYLQMNSLKPEDTAVYYCAAAHSYYGHYYYWGQGTQVTVSS
polyreactivity (PSR sort gate): high polyreactivity

QVQLVESGGGLVQAGGSLRLSCAASGFIFRWYAMGWYRQAPGKERELVATITRGGGSTYYADSVKGRFTISRDNAKNTVYLQMNSLKPEDTAVYYCAKSVTGWRGLWYTPRNYYWGQGTQVTVSS
polyreactivity (PSR sort gate): high polyreactivity

QVQLVESGGGLVQAGGSLRLSCAASGFIFRYNAMGWYRQAPGKERELVARISSGGSTNYADSVKGRFTISRDNAKNTVYLQMNSLIPEDTAVYYCAVKQYWYIWSGYGYDYWGQGTQVTVSS
polyreactivity (PSR sort gate): high polyreactivity

QVQLVESGGGLVQAGGSLRLSCAASGFIFRYYAMGWSRQAPGKERELGAAITISGGSTYYADSVKGRFTISRDNAKNTVKLQMNSLKPEDTAFYYCAADSKFWYLFHGKRYDYWGQGTQGTVSS
polyreactivity (PSR sort gate): high polyreactivity

QVQLVESGGGLVQAGGSLRLSCAASGFIFRYYAMGWYRPAPGKERELVAAISGSGGSTYYADSVKGRFTISRDNAKNTVYLQMNSLKPEDTAVYYCNKVVLYGAHYYYWGQGTQVTVSS
polyreactivity (PSR sort gate): high polyreactivity

Source: the nanobody polyreactivity screen of Harvey et al. (2022)
